# Source: the NTF2 design screens of Basanta et al. (2020)
# Assay: protease stability score; higher = more stable; yeast display proteolysis, trypsin and chymotrypsin;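 further: log10 excess protease needed over predicted unfolded state with 0 meaning unfolded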
row,Sequence,protease stability score
1,DEEINTIAEEFMKAFQHNNPDKMRNLADENAQFRIGDDKIHGMETYAKEVKKENREQRVEFQIKDLKVQGNTVDMDVSFEVERNGQPHRFEVKLHFNFHNGKLKTLQWNTDG,-0.078
2,DEQSVAEELFENLQDAVRENNPDEYKKLVDPNVNFDVGDKKVHGREQASEKFRQDLERADHIDMKVTSLRVDNGRAQADVRVTRVINGESETVEYILRFEVHGDEAVVKSQHDK,0.45
3,DEKNDRVLRRVMEAIHRGDPDKIHNQLDPNVKAEVGDKRFHGMEHIVEQVKRNWDNMRMRMKDVTVEDHNGQANAKVTYEVTENGQPKRAHVTVQAHAHDGRLTSVTYDTHE,-0.371
4,DEDQQKEVEKMLQDRRTNNPERIRKMFDPNARVQVGDKTINGREDAKRYAEEERDQIRVEYKSINISVHNGRVQVDVRARFNHNGKPETRQFNLDASIHNGRIKEFQQRDDK,-0.163
5,DEDDMRKWEELMRAFETGDEKKATELVDPNATFKVGDKTYHGREHFIKDLFTKVKEIHIQMRIRDIQQSGDFAVVHLVKSNHNNGKPNSDVAVVLVRMDNGKLKYVQETKDQ,0.587
6,DEDLERIIRRFMTALETGDPEELKKQMDENVRVQVGDKVLNGREEAAKHWTKVRDDLRIKIDTFHVENNGNRIDLSVDAEAEHNGRPQRYTLHMKAQVHNGKIKNATFTREQ,0.868
7,DEHAFKRIDEMLTAFQKNDPNKIQEYMDENVKVQYGDKSVHGRDEIAKSKQETREHLRLEIRIENYDVNGDTIHVHAKVIFNVNGDPLKFEVDIVARLHNGKIKSMQLQFSHEQQKKVES,0.682
8,DESAKRKFEEFLEQIRHNNPDELKKMMDKDVRVNIGDKEINGRDQVKNELERFAKEQRFRIQVKHMSVSNGHLHAKVTVESTHNGSPDSDKFQVQANFQGDKFKEMQWDKDS,-0.189
9,DEDANENIRKQLEWEEKGNPQQAKKQADPNAQFNIGDHTFNGMDEYMHWVKRELTHLRIEIKDVKFDVQGEKIEIDVRFVVDENGRPKEDRQDFDVTMHNGHIHNINVDKIS,-0.21
10,EEEDTKLMKQYADAVNNNNPDELRRQADENVRFEVGDNVFHGRKEYIKDVERKLRNIRITMNVKSLTVEGDKVNVTFEERHNKNGKPETFTAKARAHFHNGRIHSIRYEKDG,0.049
11,DEEKNRTAARRAAEVLRTNDPDEMSKLADKDATARIGDKHFHGKETLKEAMEELKRQVDHLRVESFRLDGDKIVITAVMSHNGKKQKIVVVAEVENGKVVDFKMDPDQVTRMQK,0.532
12,EEQLKHRLRTYIEALQTGDEKKMVEMVDPNAHIRVGDSTIHGREELRKWVQHLQREIRFQVKIRSIDVSGEHLDVKAEVRYDFNGQPVRDTLNISAEASNGTFTDLRLHIDEDVLRKIKS,1.16
13,DDEDAHRVADDANKALERGDERRLKELFDKDVRLHYGDKHVRGREEFEDWVQEWLRTVDKIRVEDYKVHDGVVRIRIRVDINGKDVSQTIDLDVKNGTIVNVVIKDN,1.43
14,DEEAFKRFKEMVDAIRTGDRDRVRRLADPNARFEVGDKEVRGMDDYARKIKRKRDEIRMRYQIDSYSKSGDKVVARVQVEVEHNGQPSSHVYRAEFKNSNGRIVELNVKTDS,0.275
15,DEEKVRHQATRFFKALQTNDEDHAVKLADENVRIVIGDKTLRGREDLKDFVRKIKNQADRVELKSVEVHGNKAKLDFIVHVNGRRVKITMVIEVDNGRVSQLELNPHDVRKMEQ,1.42
16,DQDAARIYKHQVEAIKTGNPSKVMELADPNVEFHVGDRVITGREQLRNDVDRHKKQMRVEIRIEDITDQGEFANIRANVTIDVNGRPKTSRVNMRVFAHNGKVKSQDFQTSQ,0.52
17,DEEKIAQKAVDRVEEAMNRGDPDTMKHLLDKDARITYGDQQYHGREEVIKFMDEFVENVDHVNVEFKEVEVHNGRARASARVVYTHNGQSHDVKLEVVFLIQGDEVRLTHLHYG,2.11
18,DQRDQRKANEIIKTNDESKLAKQADKDARLVVGNKEYHGKEQVQHFADQLEKMFDHLEITHYDSHGENFNVVAVMDVNGQRVQYYWRFRVHNGQFKYIEFRARDEETQKTIHRLLG,0.606
19,DEENREVMERFVQAFNRNNPDQLNTNADPNAKFVIGDKTINGRERMKKWQEEQNTHMRQHLEVTSISVHGNSITARVRMQFQVNGQPQEVDLTLHATIHNGQIKQLTFNLDKDEKKQIDK,-0.133
20,DDNLNRKVKKFWKVLQKGNPHEAKKYFDPNAHIVIGDQRIHGMDKFNRRMEHMKSHIRVQIDTLRMQDNGSQVDVTFEAVFNHNGRPKRYRARVRFEVHNGKAKSLTLKEDQ,0.265
21,DEEASKRFEKFQHLLRDGNEDRVQKLVDPNVKFDLGSTSLHGMEEVARTLVQRYRSIRIRQEIDTYEVKGDTVRFKQKVQWNINGQPFSDHITFEAHQTNGKFSHVVIRIDPQLLEELRK,0.503
22,DEEDDKEMEKAIRALLYGDPDKVKKLADPNVNIQYGDKEIQGREEVSKHVDNLRHESRMRVQTMDNDLSGDHAKFDVQYESNHNGKPDTRRVDINAKAHNGHVKHMQWNKDE,-0.25
23,DESEHAKRVADKFRTAAKNGDPDQFTQLADPNAKIDIGDKDVSGRERLSEVVNELNKRIDHLEVKVRSVTQRGNHLVVKADVDAEHNGQEIRRKVDIVLRNNNGRVNLEMIRYR,1.03
24,DDEAQKLAEDYLTALQNNNPDKVIELLDPNARAEYGDKTYHGREQIHHFLRQFHKQARLQFTSYDVEVKNGQARLHMRVQVNHNGEPSQYEASIRISVHNGRMKEVQLQWSN,1.58
25,DDEVRKVVHEWWKALRTGDPDLAKKLADPNAEFQIGDKRVHGMKDFARKLTEEHKESEIEINIRHIDAQGDNVNVHFEFQIDRNGRPQTNTQTVHLRVNNGKITRFEMRTQS,1.16

row,Sequence,protease stability score
1,DSEEAKKADEVVQTNDEDRLRDLLDEDARIIIGEFTFHGRHKAEEAVKRFQDAVDHIEIEDYDVQGNEITVVFTVSFNGKKMRFKASFHLRNGRLKHMSMTFTDPDQEREMSNLLR,0.56
2,DEDEERQFAKDLMRAMEKNDPKLLVKLADKDVSINYGEKQVHGKRQAEQLMRDLHKRVDDIKVRHVSMHNGSLTINLVLNVNGHNENLVAIVRVENGRIKSLTFEHR,0.861
3,DEKHVKKVVDRVLDALEKKNKDELVKLVKPDVEFHVADTKFEGTDQLHKYYDKVFRKGVEFHVKEVKVEGNKAQVRYDVRAGGHQETVQFEVTVKDERVDRARAEMTEKYKKLVTKG,0.086
4,DENQVDQLKELMDALQNNDERKANDLADKNARIRIGDKDVSGRSDMNRMVRELHERIRFTIRTVELHHQGDKVIAKVKVEMDHNGKPNDVTQNAEAKYHNGHLQRLFFDTRS,-0.433
5,DTRANEIWQDIVQALQTGDHERAIRLADPNVHFKVGDREVHGMTQFAHKQAQRHREARIELRVHSVRDRGDHVTVHYEMVVNVDGNPVKNTVTIYIVMRNGKLRSVEVSVDPRDVKRMRS,0.108
6,DEEWLHRFLQQYRSGDEDQMVRNMDKDVKIDVGDKEIHGREEAERWYRELKKRIDHFEVDHIKIQGESATADVRMNVNGRDVKFTLHVEAHNGRVKYVRLQATSSEVKTRMDRALG,0.198
7,DERDMTKVFDALLKNDEDTVKDQLDEDVQVTVGDKKVHGREQAQETWERLLQRADHINMKSFTTRGDRAVAIVVARVNGHKLEWEYRFKASNGKVEHARIDFRDDDEERKFENALR,0.024
8,DETQRAEEFFKRMQKLAHTNNFEHLANMADPNANFRVGDKTFHGRRDMIRQQKQIRERVDHVEYDVRRIDVHGNELDIKLEVNYDVNGKKDTRTVHYNAENNNGDVVISRVEYK,0.127
9,DEDDLRRIIKEFQKALKTGDTDEIRRQIDPNAHARYGDKEVHGREQLLSRLDELMNNVDHMQIDDLTFRGDKATVDFVMNHNGHERRHILHMVVHNGTIKSAHLDDS,1.01
10,ESELDKQAEQIVRVLRTGDPEKVADNAPEDAELIIGDKTYHGREQIRDWVHTVNKQMRIQWDEFDVKVKGDKAKVEADVVYDVNGTPVEDKIVLIFVIHNGRVHAVHFDFDPEVWRSMES,0.569
11,DEHKIAKKLADTVMSLMKTGNFDQLAKQADPNVKIEIGDTTIHGREELVKTQKRLNDQIDHVDVRVNKVQMHGDKVNIDMDFVINVNGKNERRKLTVRAKVHNGRAIITEIRYG,1.01
12,DQEKFERMAHKANRALEQNDEETFDELADENARMIYGDKRYTGRERVREAVQEIDKRVDHVQVDRVNVHGERAQINAVFHFNGKTQRDNVNMRFSNGKLQEMRFDPDVIRNLEE,-0.131
13,DEELRKNFHTFLELMKNGNPEKLAEMADPNVRVNIGDEQLRGKHRLHQHARHLKHSLRFDYQSVDVKVTGNRVDANLRVVVKVNGKPIDYTVKIHITWRNGKIKTMEIKIPEDDQKKMRR,-0.089
14,DEDKEAKKAIDDWKKIIDTNDEDQARRMFDPNAKVTIGDKTYHGREQASTLFHQLMKRFDHMSFHVDKVRVHNGQVDAVVTARFNHNGRTEEMRLRFRFDDHNGQLVIVQIDWE,1.35
15,DEDSDRSVAQEFFEAVQRGNKSDVHRLADKDAKAEVGEKDIDGREELTKWVRELKRRVDHLDVKSITNKPGRVHFDAEYHFNGTTEKMVIVVQVHNGKVKEVTVQRG,0.908
16,DEDKQAKEMMKRFVHMMQEGDPSEAKRLFDKNARLVVGDKRFHGQHEASKFAEEIKKRYDKVHVELKDLKVHGDKVDAKAKVVLNDNGQKDTHEVVITALFHNGRIKVQEVRVQ,0.983
17,DEEKEETTVEKLAKAVNTGDPDQIEDLADKDVRATIGDRQVHGREEMDRNMKEWEDKIDHLELKSVDVQGESAHANLDQRHNGRHVRMVAIAHVENGRAVEVVFRDQ,-0.157
18,DDDQRKDYERFLRWQEENDPRKVAEQADPNARFRYGDKHVQGREEQSRRFDEQRKDARWDLDIKRVNVEGNKITVHFKMQMDRNGKPDSRDATRTIEYDNGRIQRDEVKVSS,-0.231
19,DEKESADRMIQRLQELMDQNNEEEIKNEVDENARAVVGDKEYHGDEQFAKALITVVKQYDHISIQIRSFTHTNGKNVATFEATFHHNGKNDTVKIEVVFDEVNGRHNLVRLVMK,1.22
20,EEETVKHLVQLFRTGDWDQLAKEMRDNVEVIIGDKRLHGRENAEQLARILKKHIDHQSYESMTFHNGKLVMKYEFVFNGRRVRARLVVNVHNGKIVNMQLDFTDPRDERLWKKVVE,1.66
21,DNDHWRKIATDMIKALQEGDRQKVKKLVDKDAKARIGDRDVHGREHIVTLLYEMQQRIDHMQLVDVKVRGEEVVVRYHAKFNGKVVDVSITLHFRNGKVKEMRVDPRAVESLKK,1.22
22,DERNSELLKKVQEAWDHGDPRKLDEQMDPNAKVNVGDKNLHGKEQLRNTLEEDTRHSRVRVDYDSVTDHNGRVRASATFQDVINGKPVRDTFDFVAEVNNGKMKMLKVRVPEDNKRKLKR,0.022
23,DEEHKAKDAARRMQEVARRNDPTQAKEMIPPDAKVRVGDKDVHGREQVVTLFKKIADQADHLDIQVSSVDIQGDRAVVVFNLRYTINGQDRRNRVVVIFRDHNGHVMILEVQEQ,0.514
24,DEERLQKIIEKAFKVIQNGNKEEAQKLGKPNVEYHYLDKTLHGPKAVEHAVEHVKKVGAEVKQQEIEVHGGTAKAVFQYHVGDKTVQTTAEVTYEGDKMKKARVKISEEVKKMMHRG,-0.076
25,DDEKRASKFAKKLVDAFKHGDPDRFSRMVDENVRFQVGDTQYHGREDAHNLMQELRDKVDHIHVRLTQLEVKGDKADVHMNLQYKHNGKNNDVRMRAVATDNNGRLLVTHFRIN,1.26
